Tests used:
[1] = target: COBRA P1 HA N127D mutant, CHO expressed, for binding assays; assay: BLI; Octet RED384; HA loaded on anti-Penta-His biosensors (10 μg/mL), Fab 1F8 15 nM to 0.556 nM in solution; PBS, 1% BSA, 0.05% Tween 20; 30 °C; 1:1 model with mass transport limitation; mean of two independent experiments
[2] = target: COBRA P1 HA wild type, CHO expressed, for binding assays; assay: as above

B1: Fab 1F8 (recombinant Fab of the P1-elicited mouse monoclonal antibody 1F8) (Fab, V domains shown)
VH: QVQLQQSGAELMKPGASVKISCKATGYTFSSYWIEWVKQRPGHGLEWIGEILPGSGRTNYDERFKGKATFTADTSSNTAYMQLSSLTSEDSAVYYCARPRIYGMDYWGQGTSVTVSS
VL: DIVLTQSPASLAVSLGQRATISCKASQSVDFDGDTYMSWYQQKPGQPPKLLIYAASKLESGIPARFSGSGSGTDFTLNIHPVEEEDAATYFCQQSNEDPWTFGGGTKLEIK
Kd [1]: 0.86 nM
Kd [2]: 2.95 nM

Source: paper PMC10126545
